Data reported in IntAct's records for PubMed 10743655.

B1: Zinc finger protein CONSTANS (Arabidopsis thaliana (Mouse-ear cress)), Q39057 (parent)
chain: MLKQESNDIGSGENNRARPCDTCRSNACTVYCHADSAYLCMSCDAQVHSANRVASRHKRVRVCESCERAPAAFLCEADDASLCTACDSEVHSANPLARRHQRVPILPISGNSFSSMTTTHHQSEKTMTDPEKRLVVDQEEGEEGDKDAKEVASWLFPNSDKNNNNQNNGLLFSDEYLNLVDYNSSMDYKFTGEYSQHQQNCSVPQTSYGGDRVVPLKLEESRGHQCHNQQNFQFNIKYGSSGTHYNDNGSINHNAYISSMETGVVPESTACVTTASHPRTPKGTVEQQPDPASQMITVTQLSPMDREARVLRYREKRKTRKFEKTIRYASRKAYAEIRPRVNGRFAKREIEAEEQGFNTMLMYNTGYGIVPSF
partner: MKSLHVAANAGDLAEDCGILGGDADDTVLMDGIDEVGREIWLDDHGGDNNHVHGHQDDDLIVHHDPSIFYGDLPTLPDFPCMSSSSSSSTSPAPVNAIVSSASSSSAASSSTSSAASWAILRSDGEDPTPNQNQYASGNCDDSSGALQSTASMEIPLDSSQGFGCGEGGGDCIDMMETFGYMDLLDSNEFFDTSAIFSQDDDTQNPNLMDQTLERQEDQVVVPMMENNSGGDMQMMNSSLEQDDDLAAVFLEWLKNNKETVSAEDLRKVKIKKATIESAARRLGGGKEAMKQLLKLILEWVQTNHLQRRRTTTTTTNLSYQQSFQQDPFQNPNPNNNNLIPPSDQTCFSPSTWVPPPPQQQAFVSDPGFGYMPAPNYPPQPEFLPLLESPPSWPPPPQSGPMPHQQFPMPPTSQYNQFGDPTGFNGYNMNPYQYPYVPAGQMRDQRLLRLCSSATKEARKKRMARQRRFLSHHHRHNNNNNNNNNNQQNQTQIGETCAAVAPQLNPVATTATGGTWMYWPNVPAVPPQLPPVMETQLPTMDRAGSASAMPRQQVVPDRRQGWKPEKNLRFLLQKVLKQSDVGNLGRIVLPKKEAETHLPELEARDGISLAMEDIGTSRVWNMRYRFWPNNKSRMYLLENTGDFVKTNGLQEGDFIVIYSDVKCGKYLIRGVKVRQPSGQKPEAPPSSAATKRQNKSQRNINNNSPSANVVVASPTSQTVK

Variants of: B1
Settings: with abi3_arath ABI3, Q01593

For R340Q, which “effect of a mutation on the interaction” value is on record?
Its value is “decreasing interaction strength”.

With P339L as the variant, how does the “effect of a mutation on the interaction” value read?
The value was “decreasing interaction”.
